Measurements taken from patent US20120045393A1 (priority 2009, published 2012).
Non-standard residues stand in square brackets, D forms with d. Bpa = N[C@@H](Cc1ccc(C(=O)c2ccccc2)cc1)C(=O)O; DO3A10CM = not defined here; Damfe4 = not defined here; azaGly = NNC(=O)O

Legend:
[1] = target: LHRH receptor (LHRH binding sites) on EFO-27 human ovarian cancer cells (human); test: competition with [125I-Tyr8]BRU-2477, EFO-27 cells
[2] = target: LHRH binding sites on EFO-27 human ovarian cancer cells (human); test: competition with [125I-Tyr8]BRU-2477 on EFO-27 cells
[3] = target: LHRH receptor (LHRH binding sites) on EFO-27 human ovarian cancer cells (human); test: competition with [125I-Tyr8]BRU-2477 for binding to EFO-27 cells

EC50 [1]	EC50 [2]	EC50 [3]	fold reduced binding against peptide 18 (BRU-3103) [2]	Binder
440 nM	440 nM			XRWSHXWXPX (DO3A10CM on N-terminus; AA1 Apsp; AA6 Darg; AA8 Bpa4; AA10 azaGly-NH2) [BRU-3056]
360 nM		360 nM		XRWSHXWXP (Sar at 1; Darg at 6; Bpa4 at 8; C-terminal Dabt14 linker carrying DO3A10CM) [BRU-3041]
210 nM		210 nM		XRWSHXWXP (Sar at 1; Darg at 6; Bpa4 at 8; C-terminal Maz4dahp17 linker carrying DO3A10CM) [BRU-3045]
140 nM		140 nM		XRWSHXWXP (N-terminal DO3A10CM; Da48oa linker before 1; Dnal2 at 1; Darg at 6; Bpa4 at 8; C-terminal Da15o3pt at 10) [BRU-3100]
		1020 nM	5 to 6 fold	XRWSHXWXP (AA1 Sar; AA6 Darg; AA8 Bpa4; C-terminal Pro9-M1daprp13-DO3A10CM) [BRU-3086]
470 nM		470 nM		XRWSHXWXP (Ac-Dnal2 at 1; Darg at 6; Bpa4 at 8; C-terminal Da15o3pt linker carrying DO3A10CM) [BRU-2992]
350 nM	350 nM			XRWSHXWXPX (DO3A10CM on N-terminus; AA1 Ampha4; AA6 Darg; AA8 Bpa4; AA10 azaGly-NH2) [BRU-3094]
360 nM	360 nM			XXWSHXWXPX (DO3A10CM on N-terminus; AA1 Dnal2; AA2 Darg; AA6 Darg; AA8 Bpa4; AA10 azaGly-NH2) [BRU-3049]
390 nM	390 nM			XRWSHXWXPX (DO3A10CM on N-terminus; AA1 Atdc2; AA6 Darg; AA8 Bpa4; AA10 azaGly-NH2) [BRU-3055]
310 nM	310 nM			XRWSHXWXPX (DO3A10CM on N-terminus; AA1 Dbpa4; AA6 Darg; AA8 Bpa4; AA10 azaGly-NH2) [BRU-3071]
280 nM	280 nM			XRWSHXWXPX (DO3A10CM on N-terminus; AA1 Bip; AA6 Darg; AA8 Bpa4; AA10 azaGly-NH2) [BRU-3070]
		590 nM		XHWSHXWXP (as printed: Sar-H-W-S-H-Darg-W-Bpa4-P-Dae-DO3A10CM (C-terminal chelator)) [BRU-3079]
		1180 nM		GHWSHXWXPX (as printed: DO3A10CM-Gly-His-Trp-Ser-His-Darg-Trp-Bpa4-Pro-azaGly-NH2 (Gly is AA1)) [BRU-2733]
	1550 nM	1530 nM		GXHWSHXWXPX (DO3A10CM-Gly (linker) on N-terminus; AA1 Sar; AA6 Darg; AA8 Bpa4; AA10 azaGly-NH2) [BRU-2717]
320 nM	320 nM			GXRWSHXWXPX (DO3A10CM-Gly (linker) on N-terminus; AA1 Tpi; AA6 Darg; AA8 Bpa4; AA10 azaGly-NH2) [BRU-3053]
		650 nM		XXHWSHXWXPX (as printed: DO3A10CM-Ambz4-Sar-His-Trp-Ser-His-Darg-Trp-Bpa4-Pro-azaGly-NH2 (Ambz4 is the linker)) [BRU-2727]
210 nM		210 nM		XRWSHXWXP (Dnal2 at 1; Darg at 6; Bpa4 at 8; C-terminal Da15o3pt linker carrying DO3A10CM) [BRU-2991]
240 nM	240 nM			GXRWSHXWXPX (DO3A10CM-Gly (linker) on N-terminus; AA1 Dtpi; AA6 Darg; AA8 Bpa4; AA10 azaGly-NH2) [BRU-3068]
290 nM	290 nM			DO3A10CM-[Damfe4][Damfe4]WSH[dR]W[Bpa]P[azaGly]-NH2 (reading uncertain) [BRU-3095]
330 nM		330 nM		XRWSHXWXP (Sar at 1; Darg at 6; Bpa4 at 8; C-terminal Da18o36oc linker carrying DO3A10CM) [BRU-3043]
450 nM		450 nM		KXRWSHXWXPX (N-terminal DO3A10CM; Lys linker before 1; Dnal2 at 1; Darg at 6; Bpa4 at 8; azaGly-NH2 at 10) [BRU-3097]
280 nM		280 nM		XRWSHXWXP (Sar at 1; Darg at 6; Bpa4 at 8; C-terminal Da15o3pt linker carrying DO3A10CM) [BRU-3039]
470 nM	470 nM			XRWSHXWXPX (DO3A10CM on N-terminus; AA1 Datdc2; AA6 Darg; AA8 Bpa4; AA10 azaGly-NH2) [BRU-3063]
